Laboratory results taken from patent publication US20200190197A1 (REMD BIOTHERAPEUTICS, published 2020).

What follows are binders tested against T1, His-tagged PD-L1 protein (human, UniProt Q9NZQ7 19-238) (assay: SPR, Biacore T200, multi-cycle; Fab captured on chip, His-tagged PD-L1 as analyte).
T1 construct: also called His-tagged antigen PD-L1 protein; human PD-L1; not shown: His tag
Method: A combinatorial humanization phage display library was constructed using the heavy chain and light chain variable domain sequences of mAb PDL1#10. Briefly, frameworks of human antibodies with high sequence identities to PDL1#10 were selected and assembled using overlapping PCR. This humanized Fab phage display library was panned against PD-L1 Fc-fusion protein. Individual output phage clones were amplified in 96-deep-well plates and the amplified phage were assayed by ELISA against PD-L1 Fc-fusion protein. […] DNAs encoding the Fab fragments of the output phage were amplified and inserted in pFASEBA vector (Genscript) for the screening of the best humanized antibody clones. Individual Fab clones were expressed in 96-deep-well plates and the crude protein secreted by E. coli to the medium was assayed by ELISA against BSA and the antigen PD-L1 protein for the assessment of expression and binding activity, respectively. Thousands of humanized clones were screened and a number of clones with slower off-rate were identified, amongst which 14 clones with the highest binding affinities were subjected to multi-cycle affinity measurement. The binding affinity of the 14 purified Fabs to His-tagged PD-L1 protein were determined using a Surface Plasmon Resonance (SPR) biosensor, Biacore T200 (GE Healthcare) for multi-cycle affinity measurements. Fabs were immobilized on the sensor chip through capture method. His-tagged antigen PD-L1 protein was used as the analyte. The data of dissociation (kd) and association (ka) rate constants were processed using Biacore T200 evaluation software. The equilibrium dissociation constants (KD) were calculated from the ratio of kd over ka.

T1 sequence (Q9NZQ7 19-238 limits assumed): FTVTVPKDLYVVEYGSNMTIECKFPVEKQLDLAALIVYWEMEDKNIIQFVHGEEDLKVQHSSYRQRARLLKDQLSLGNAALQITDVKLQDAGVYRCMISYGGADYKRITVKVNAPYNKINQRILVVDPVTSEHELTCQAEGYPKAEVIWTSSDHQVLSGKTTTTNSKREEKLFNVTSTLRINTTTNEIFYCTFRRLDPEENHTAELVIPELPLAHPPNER

Binder | Kd | koff | kon
AS02013 (humanized Fab) (Fab, V domains shown, Purified humanized Fab) VH: EVQLVQSGAEVKKPGESLKISCKGSGYSFTSYSINWVRQAPGKGLEWMGYFYVGNGYTDYNEKFKGRVTMTRNTSISTAYMELSSLRSEDTAVYYCARGGLPYYFDYWGQGTLVTVSS VL: DIQLTQSPSSLSASVGDRVTITCKTSQDVNTAVAWYQQKPGQAPRLLIYWASTRHTGVPSRFSGSGSGTDFTLTISSLQPEDFATYYCQQHYNTPLTFGGGTKLEIK | 0.38 nM | 0.0002 s⁻¹ | 500000 M⁻¹ s⁻¹
AS01790 (humanized Fab) (Fab, V domains shown, Purified humanized Fab derived from PDL1#10 (pFASEBA vector, E. coli)) VH: EVQLVQSGAEVKKPGESLKISCKGSGYSFTSYSINWVRQMPGKGLEWMGYFYVGNGYTDYNEKFKGRVTMTRNTSISTAYMELSSLRSEDTAVYYCARGGLPYYFDYWGQGTLVTVSS VL: DIQMTQSPSTLSASVGDRVTITCKTSQDVNTAVAWYQQKPGKAPKLLIYWASTRHTGVPSRFSGSGSGTEFTLTISSLQPEDFATYYCQQHYNTPLTFGGGTKLEIK | 0.35 nM | 0.00017 s⁻¹ | 500000 M⁻¹ s⁻¹
AS01817 (humanized Fab) (Fab, V domains shown, Purified humanized Fab) VH: EVQLVQSGAEVKKPGESLKISCKGSGYSFTSYSINWVRQAPGKGLEWMGYFYVGNGYTDYNEKFKGRVTITRDTSASTAYMELSSLRSEDTAVYYCARGGLPYYFDYWGQGTLVTVSS VL: DIQLTQSPSFLSASVGDRVTITCKTSQDVNTAVAWYQQKPGQPPKLLIYWASTRHTGVPSRFSGSGSGTDFTLTISSLQPEDFATYYCQQHYNTPLTFGGGTKLEIK | 0.93 nM | 0.00032 s⁻¹ | 340000 M⁻¹ s⁻¹
AS01978 (humanized Fab) (Fab, V domains shown, Purified humanized Fab) VH: EVQLVQSGAEVKKPGESLKISCKGSGYSFTSYSINWVRQAPGKGLEWMGYFYVGNGYTDYNEKFKGRVTITTDESTSTAYMELSSLRSEDTAVYYCARGGLPYYFDYWGQGTLVTVSS VL: DIQLTQSPSSLSASVGDRVTITCKTSQDVNTAVAWYQQKPDQSPKLLIKWASTRHTGVPSRFSGSGSGTDFTLTISSLQPEDFATYYCQQHYNTPLTFGGGTKLEIK | 1.6 nM | 0.00045 s⁻¹ | 290000 M⁻¹ s⁻¹
AS01979 (humanized Fab) (Fab, V domains shown, Purified humanized Fab) VH: EVQLVQSGAEVKKPGESLKISCKGSGYSFTSYSINWVRQAPGKGLEWMGYFYVGNGYTDYNEKFKGRVTMTRNTSISTAYMELSSLRSEDTAVYYCARGGLPYYFDYWGQGTLVTVSS VL: DIQMTQSPSSVSASVGDRVTITCKTSQDVNTAVAWYQQKPGQPPKLLIYWASTRHTGVPDRFSGSGSGTDFTLTISSLQAEDVAVYYCQQHYNTPLTFGGGTKLEIK | 0.4 nM | 0.00019 s⁻¹ | 470000 M⁻¹ s⁻¹
AS01995 (humanized Fab) (Fab, V domains shown, Purified humanized Fab) VH: EVQLVQSGAEVKKPGESLKISCKGSGYSFTSYSINWVRQAPGKGLEWMGYFYVGNGYTDYNEKFKGRVTMTRNTSISTAYMELSSLRSEDTAVYYCARGGLPYYFDYWGQGTLVTVSS VL: DIQMTQSPSSVSASVGDRVTITCKTSQDVNTAVAWYQQKPGKAPKLLLYWASTRHTGVPSRFSGSGSGTDFTLTISSLQPEDVATYYCQQHYNTPLTFGGGTKLEIK | 0.37 nM | 0.00017 s⁻¹ | 450000 M⁻¹ s⁻¹
AS01814 (humanized Fab) (Fab, V domains shown, Purified humanized Fab) VH: QVQLVQSGSELKKPGASVKVSCKASGYTFTSYSINWVRQAPGKGLEWVAYFYVGNGYTDYNEKFKGRVTITADESTSTAYMELSSLRSEDTAVYYCARGGLPYYFDYWGQGTLVTVSS VL: DIQMTQSPSTLSASVGDRVTITCKTSQDVNTAVAWYQQKPGKAPKLLLYWASTRHTGIPARFSGSGSGTEFTLTISSLQSEDFAVYYCQQHYNTPLTFGGGTKLEIK | 0.16 nM | 0.00011 s⁻¹ | 680000 M⁻¹ s⁻¹
AS01789 (humanized Fab) (Fab, V domains shown, Purified humanized Fab) VH: EVQLVQSGAEVKKPGESLKISCKGSGYSFTSYSINWVRQAPGQALEWMGYFYVGNGYTDYNEKFKGRVTITRDTSASTAYMELSSLRSEDTAVYYCARGDLPFYFDYWGDGILVTVAS VL: DIVMTQSPDSLAVSLGERATINCKTSQDVNTAVAWYQQKPGQPPKLLIYWASTRHTGVPDRFSGSGSGTDFTLKISRVEAEDVGVYYCQQHYNTPLTFGGGTKLEIK | 1.1 nM | 0.00036 s⁻¹ | 330000 M⁻¹ s⁻¹
AS01824 (humanized Fab) (Fab, V domains shown, Purified humanized Fab) VH: QVQLVQSGSELKKPGASVKVSCKASGYTFTSYSINWVRQAPGKGLEWVAYFYVGNGYTDYNEKFKGRVTITADESTSTAYMELSSLRSEDTAVYYCARGGLPYYFDYWGQGTLVTVSS VL: EIVMTQSPATLSVSPGERATLSCKTSQDVNTAVAWYLQKPGQSPQLLIYWASTRHTGVPSRFSGSGSGTDYTLTISSLQPEDFATYYCQQHYNTPLTFGGGTKLEIK | 0.87 nM | 0.00054 s⁻¹ | 620000 M⁻¹ s⁻¹
AS01807 (humanized Fab) (Fab, V domains shown, Purified humanized Fab) VH: QVQLVQSGSELKKPGASVKVSCKASGYTFTSYSINWVRQAPGKGLEWMGYFYVGNGYTDYNEKFKGRVTITRDTSASTAYMELSSLRSEDTAVYYCARGGLPYYFDYWGQGTLVTVSS VL: DIQMTQSPSSVSASVGDRVTITCKTSQDVNTAVAWYQQKPDQSPKLLIKWASTRHTGVPSRFSGSGSGTDFTLTISSLQPEDFATYYCQQHYNTPLTFGGGTKLEIK | 1.4 nM | 0.00035 s⁻¹ | 260000 M⁻¹ s⁻¹
AS01825 (humanized Fab) (Fab, V domains shown, Purified humanized Fab) VH: QMQLVQSGAEVKKTGSSVKVSCKASGYTFTSYSINWVRQMPGKGLEWMGYFYVGNGYTDYNEKFKGRVTITADESTSTAYMELSSLRSEDTAVYYCARGGLPYYFDYWGQGTLVTVSS VL: DIQLTQSPSFLSASVGDRVTITCKTSQDVNTAVAWYQQKPGKAPKLLIYWASTRHTGVPSRFSGSGSGTDFTLTISSLQPEDVATYYCQQHYNTPLTFGGGTKLEIK | 1.1 nM | 0.00039 s⁻¹ | 360000 M⁻¹ s⁻¹
AS02002 (humanized Fab) (Fab, V domains shown, Purified humanized Fab) VH: QMQLVQSGAEVKKTGSSVKVSCKASGYTFTSYSINWVRQARGQRLEWIGYFYVGNGYTDYNEKFKGRVTITADESTSTAYMELSSLRSEDTAVYYCARGGLPYYFDYWGQGTLVTVSS VL: DIQMTQSPSSLSASVGDRVTITCKTSQDVNTAVAWYQQKPDQSPKLLIKWASTRHTGIPARFSGSGSGTEFTLTISSLQSEDFAVYYCQQHYNTPLTFGGGTKLEIK | 1.5 nM | 0.00042 s⁻¹ | 310000 M⁻¹ s⁻¹
murine-human chimeric Fab (from mAb PDL1#10) (Fab, V domains shown) VH: EVQLQQSGAELVRPGSSVKMSCKTSGYTFTSYSINWVKQRPGQGLEWIAYFYVGNGYTDYNEKFKGKATLTSDTSSSTAYMQLSSLTSEDSAIYFCARGGLPYYFDYWGQGTTLTVSS VL: DIVMTQSHKFMSTSVGDRVSITCKTSQDVNTAVAWYQQKPGHSPKLLFYWASTRHTGVPDRFTGGGSGTDYTLTISSVQAEDLALYYCQQHYNTPLTFGAGTRLELKR | 0.29 nM | 0.00021 s⁻¹ | 730000 M⁻¹ s⁻¹

What follows are binders tested against T1, His-tagged PD-L1 protein (assay: SPR, Biacore T200, full-length IgG, 1:1 interaction model).
Description: Binding data for each antibody was processed and fitted to 1:1 interaction model using Biacore T200 evaluation software. All experimental data could be well fitted to the model.

Binder | Kd | koff | kon
AS01790 (humanized full-length IgG) (antibody, V domains shown, Full-length IgG expressed in HEK293 cells, protein A purified) VH: EVQLVQSGAEVKKPGESLKISCKGSGYSFTSYSINWVRQMPGKGLEWMGYFYVGNGYTDYNEKFKGRVTMTRNTSISTAYMELSSLRSEDTAVYYCARGGLPYYFDYWGQGTLVTVSS VL: DIQMTQSPSTLSASVGDRVTITCKTSQDVNTAVAWYQQKPGKAPKLLIYWASTRHTGVPSRFSGSGSGTEFTLTISSLQPEDFATYYCQQHYNTPLTFGGGTKLEIKR | 0.769 nM | 0.000253 s⁻¹ | 329000 M⁻¹ s⁻¹
AS02013 (humanized full-length IgG) (antibody, V domains shown, Full-length IgG expressed in HEK293 cells, protein A purified) VH: EVQLVQSGAEVKKPGESLKISCKGSGYSFTSYSINWVRQAPGKGLEWMGYFYVGNGYTDYNEKFKGRVTMTRNTSISTAYMELSSLRSEDTAVYYCARGGLPYYFDYWGQGTLVTVSS VL: DIQLTQSPSSLSASVGDRVTITCKTSQDVNTAVAWYQQKPGQAPRLLIYWASTRHTGVPSRFSGSGSGTDFTLTISSLQPEDFATYYCQQHYNTPLTFGGGTKLEIKR | 0.751 nM | 0.000276 s⁻¹ | 367000 M⁻¹ s⁻¹
AS01814 (humanized full-length IgG) (antibody, V domains shown, Full-length IgG expressed in HEK293 cells, protein A purified) VH: QVQLVQSGSELKKPGASVKVSCKASGYTFTSYSINWVRQAPGKGLEWVAYFYVGNGYTDYNEKFKGRVTITADESTSTAYMELSSLRSEDTAVYYCARGGLPYYFDYWGQGTLVTVSS VL: DIQMTQSPSTLSASVGDRVTITCKTSQDVNTAVAWYQQKPGKAPKLLLYWASTRHTGIPARFSGSGSGTEFTLTISSLQSEDFAVYYCQQHYNTPLTFGGGTKLEIKR | 0.461 nM | 0.000173 s⁻¹ | 376000 M⁻¹ s⁻¹
murine-human chimeric antibody derived from murine PDL1#10 (Chimeric IgG) (antibody, V domains shown, also called mouse-human chimeric antibody) VH: EVQLQQSGAELVRPGSSVKMSCKTSGYTFTSYSINWVKQRPGQGLEWIAYFYVGNGYTDYNEKFKGKATLTSDTSSSTAYMQLSSLTSEDSAIYFCARGGLPYYFDYWGQGTTLTVSS VL: DIVMTQSHKFMSTSVGDRVSITCKTSQDVNTAVAWYQQKPGHSPKLLFYWASTRHTGVPDRFTGGGSGTDYTLTISSVQAEDLALYYCQQHYNTPLTFGAGTRLELKR | 1 nM | 0.000338 s⁻¹ | 336000 M⁻¹ s⁻¹
